# Biological target: human plasma membrane Ca2+-ATPase 1, full-length human PMCA1d (human) (UniProt P20020)
# Chain of UniProt P20020 (P20020 other isoform, or with tags, fused parts or gaps): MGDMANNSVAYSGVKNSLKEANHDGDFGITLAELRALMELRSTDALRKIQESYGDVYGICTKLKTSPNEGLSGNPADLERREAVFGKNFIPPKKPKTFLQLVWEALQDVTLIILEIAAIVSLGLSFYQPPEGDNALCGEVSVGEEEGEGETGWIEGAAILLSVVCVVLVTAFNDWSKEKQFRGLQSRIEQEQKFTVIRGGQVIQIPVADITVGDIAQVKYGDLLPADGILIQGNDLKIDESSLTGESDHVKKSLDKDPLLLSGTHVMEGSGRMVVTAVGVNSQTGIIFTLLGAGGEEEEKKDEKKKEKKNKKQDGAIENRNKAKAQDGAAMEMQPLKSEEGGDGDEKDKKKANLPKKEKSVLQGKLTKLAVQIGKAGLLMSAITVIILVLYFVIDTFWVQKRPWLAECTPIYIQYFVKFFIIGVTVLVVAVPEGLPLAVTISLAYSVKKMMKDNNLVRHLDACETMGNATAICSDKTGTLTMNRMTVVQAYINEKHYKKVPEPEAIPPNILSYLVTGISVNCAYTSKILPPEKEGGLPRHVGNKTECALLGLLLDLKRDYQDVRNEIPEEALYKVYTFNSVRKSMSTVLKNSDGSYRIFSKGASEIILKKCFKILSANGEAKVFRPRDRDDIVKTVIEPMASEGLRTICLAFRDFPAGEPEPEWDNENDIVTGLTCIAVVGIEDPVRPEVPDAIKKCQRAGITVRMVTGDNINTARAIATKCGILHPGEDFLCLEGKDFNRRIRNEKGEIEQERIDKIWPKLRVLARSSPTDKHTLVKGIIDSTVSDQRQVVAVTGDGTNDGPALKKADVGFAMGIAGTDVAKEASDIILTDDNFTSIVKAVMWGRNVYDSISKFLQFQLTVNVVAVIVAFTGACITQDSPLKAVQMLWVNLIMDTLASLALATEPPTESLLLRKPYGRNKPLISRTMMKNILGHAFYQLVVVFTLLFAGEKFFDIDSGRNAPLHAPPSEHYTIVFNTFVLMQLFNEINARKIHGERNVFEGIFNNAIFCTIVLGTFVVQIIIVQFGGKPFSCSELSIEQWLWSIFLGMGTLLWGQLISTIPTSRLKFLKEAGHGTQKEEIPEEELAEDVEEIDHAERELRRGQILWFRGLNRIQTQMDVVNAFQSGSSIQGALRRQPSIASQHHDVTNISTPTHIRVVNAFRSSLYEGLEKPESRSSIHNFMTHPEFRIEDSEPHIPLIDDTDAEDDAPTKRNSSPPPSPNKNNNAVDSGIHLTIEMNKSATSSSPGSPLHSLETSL
substance,measurement,value
neuroplastin (natural protein),Vmax of the ATPase activity of purified hPMCA1-NPTN proteins (nmol mg^-1 min^-1),326

# Source: PMC6127144
